{"source": "paper PMC11081419", "about": "“Structural basis of chemokine recognition by the class A3 tick evasin EVA‐ACA1001” (Protein Science : A Publication of the Protein Society, 2024)", "binders": {"B1": {"name": "EVA‐ACA1001 (untagged, for crystallization and cell assays) (natural protein)", "chain": "ENGEGTTQPDYDNSTDYYNYEDFKCTCPAPHLNNTNGTVMKPIGCYYTCNVTRCTAPDTYPCYNLTEHQAKNLTTSPTTLCAVGNCDHGICVPNGTKELCFKAPNLEE"}, "B2": {"name": "EVA‐ACA1001, Avi-tagged and biotinylated (SPR construct) (natural protein)", "chain": "ENGEGTTQPDYDNSTDYYNYEDFKCTCPAPHLNNTNGTVMKPIGCYYTCNVTRCTAPDTYPCYNLTEHQAKNLTTSPTTLCAVGNCDHGICVPNGTKELCFKAPNLEE", "modifications": "biotin on the AVI tag (BirA ligase)", "notes": "EVA-ACA1001 (Evasin P991), class A3 evasin of Amblyomma cajennense; mass of the untagged protein 11,920 Da (calculated 11,921 Da with five disulfides); also called Evasin P991; full‐length EVA‐ACA1001; not shown: His6, N-terminal, cleaved; SUMO, N-terminal, cleaved"}, "B3": {"name": "CCL3 (ligand, human, UniProt P10147 24-92, looked up)", "chain": "SLAADTPTACCFSYTSRQIPQNFIADYFETSSQCSKPGVIFLTKRSRQVCADPSEEWVQKYVSDLELSA", "notes": "CCL3, human CC chemokine"}, "B4": {"name": "CCL4 (ligand, human, UniProt P13236 24-92, looked up)", "chain": "APMGSDPPTACCFSYTARKLPRNFVVDYYETSSLCSQPAVVFQTKRSKQVCADPSESWVQEYVYDLELN", "notes": "CCL4, human CC chemokine"}, "B5": {"name": "CCL8 (ligand, human, UniProt P80075 24-99, looked up)", "chain": "QPDSVSIPITCCFNVINRKIPIQRLESYTRITNIQCPKEAVIFKTKRGKEVCADPKERWVRDSMKHLDQIFQNLKP", "notes": "CCL8, human CC chemokine"}, "B6": {"name": "CCL21 (ligand, human, UniProt O00585 24-134, looked up)", "chain": "SDGGAQDCCLKYSQRKIPAKVVRSYRKQEPSLGCSIPAILFLPRKRSQAELCADPKELWVQQLMQHLDKTPSPQKPAQGCRKDRGASKTGKKGKGSKGCKRTERSQTPKGP", "notes": "CCL21, human CC chemokine"}}}
{"biological_target": "B1", "test": "crystal structure; EVA-ACA1001 and CCL16 mixed 1:1.2, complex purified on Superdex 75 in 10 mM HEPES pH 7.5, 150 mM NaCl; crystals from 0.1 M HEPES pH 7.0, 0.5% v/v Jeff ED-2001, 1.1 M sodium malonate; two complexes per asymmetric unit", "conditions": "both partners purified"}
{"binder": "CCL16 (ligand, human, UniProt O15467 24-120, looked up, CCL16, human CC chemokine; The E. coli preparation is described for the crystal; also called human chemokine CCL16; not shown: His6, N-terminal, cleaved; SUMO, N-terminal, cleaved) QPKVPEWVNTPSTCCLKYYEKVLPRRLVVGYRKALNCHLPAIIFVTKRNREVCTNPNDDWVQEYIKDPNLPLLPTRNLSTVKIITAKNGQPQLLNSQ", "stoichiometry N": 1}
{"biological_target": "B5", "test": "cell-based or functional assay", "conditions": "not given", "units": {"IC50 of EVA-ACA1001 for inhibition of CCL8-stimulated activation of CCR5 (cAMP assay); blocks CCL8 with CCR5": "nM"}}
{"binder": "B1", "IC50 of EVA-ACA1001 for inhibition of CCL8-stimulated activation of CCR5 (cAMP assay); blocks CCL8 with CCR5": "~189"}
{"biological_target": "B2", "test": "SPR; screen at a single chemokine concentration: biotinylated Avi-tagged evasin immobilised on a streptavidin-coated CAPture chip (80 response units); 500 nM chemokine flowed for 240 s at 30 uL/min, 600 s dissociation; 25°C; Biacore T100; 10 mM HEPES, 500 mM NaCl, 0.002% Tween 20, 3 mM EDTA, 1 mg/mL carboxymethyl dextran, pH 7.5", "conditions": "both partners purified"}
{"binder": "CCL7 (ligand, CCL7, human CC chemokine) not shown", "binding result": "binds"}
{"binder": "CCL18 (ligand, human, UniProt P55774 21-89, looked up, CCL18, human CC chemokine) AQVGTNKELCCLVYTSWQIPQKFIVDYSETSPQCPKPGVILLTKRGRQICADPNKKWVQKYISDLKLNA", "binding result": "binds"}
{"biological_target": "B6", "test": "SPR; affinity determination: biotinylated Avi-tagged evasin immobilised on a streptavidin-coated CAPture chip; five two-fold increasing chemokine concentrations (31.25-500 nM), 240 s at 30 uL/min, 600 s dissociation; 1:1 binding model; 25°C; 10 mM HEPES, 500 mM NaCl, 0.002% Tween 20, 3 mM EDTA, 1 mg/mL carboxymethyl dextran, pH 7.5; three independent experiments (Table 1 caption: multiple-cycle kinetics)", "conditions": "both partners purified", "units": {"Kd": "nM"}}
{"binder": "B2", "Kd": 6.5}
{"biological_target": "B2", "test": "SPR; affinity determination: biotinylated Avi-tagged evasin immobilised on a streptavidin-coated CAPture chip; five two-fold increasing chemokine concentrations (31.25-500 nM), 240 s at 30 uL/min, 600 s dissociation; 1:1 binding model; 25°C; 10 mM HEPES, 500 mM NaCl, 0.002% Tween 20, 3 mM EDTA, 1 mg/mL carboxymethyl dextran, pH 7.5; three independent experiments (Table 1 caption: multiple-cycle kinetics)", "conditions": "both partners purified", "units": {"Kd": "nM"}}
{"binder": "CCL1 (ligand, human, UniProt P22362 24-96, looked up, CCL1, human CC chemokine) KSMQVPFSRCCFSFAEQEIPLRAILCYRNTSSICSNEGLIFKLKRGKEACALDTVGWVQRHRKMLRHCPSKRK", "Kd": 21.1, "pKd": "7.71 -log(Kd, M)"}
{"binder": "B3", "Kd": 1.08, "pKd": "8.99 -log(Kd, M)"}
{"binder": "CCL27 (ligand, human, UniProt Q9Y4X3 25-112, looked up, CCL27, human CC chemokine) FLLPPSTACCTQLYRKPLSDKLLRKVIQVELQEADGDCHLQAFVLHLAQRSICIHPQNPSLSQWFEHQERKLHGTLPKLNFGMLRKMG", "Kd": 84.8, "pKd": "7.07 -log(Kd, M)"}
{"binder": "CCL26 (ligand, human, UniProt Q9Y258 24-94, looked up, CCL26, human CC chemokine) TRGSDISKTCCFQYSHKPLPWTWVRSYEFTSNSCSQRAVIFTTKRGKKVCTHPRKKWVQKYISLLKTPKQL", "Kd": 1.68, "pKd": "8.77 -log(Kd, M)"}
{"binder": "CCL11 (ligand, CCL11, human CC chemokine) not shown", "Kd": 0.38, "pKd": "9.49 -log(Kd, M)"}
{"binder": "CCL24 (ligand, human, UniProt O00175 27-119, looked up, CCL24, human CC chemokine) VVIPSPCCMFFVSKRIPENRVVSYQLSSRSTCLKAGVIFTTKKGQQFCGDPKQEWVQRYMKNLDAKQKKASPRARAVAVKGPVQRYPGNQTTC", "Kd": 8.9, "pKd": "8.22 -log(Kd, M)"}
{"binder": "CCL13 (ligand, CCL13, human CC chemokine) not shown", "Kd": 0.39, "pKd": "9.41 -log(Kd, M)"}
{"binder": "CCL22 (ligand, human, UniProt O00626 25-93, looked up, CCL22, human CC chemokine) GPYGANMEDSVCCRDYVRYRLPLRVVKHFYWTSDSCPRPGVVLLTFRDKEICADPRVPWVKMILNKLSQ", "Kd": 1.29, "pKd": "8.9 -log(Kd, M)"}
{"binder": "B4", "Kd": 1.18, "pKd": "8.93 -log(Kd, M)"}
{"binder": "CCL19 (ligand, human, UniProt Q99731 22-98, looked up, CCL19, human CC chemokine) GTNDAEDCCLSVTQKPIPGYIVRNFHYLLIKDGCRVPAVVFTTLRGRQLCAPPDQPWVERIIQRLQRTSAKMKRRSS", "Kd": 1.31, "pKd": "8.9 -log(Kd, M)"}
{"binder": "CCL5 (ligand, human, UniProt P13501 24-91, looked up, CCL5, human CC chemokine) SPYSSDTTPCCFAYIARPLPRAHIKEYFYTSGKCSNPAVVFVTRKNRQVCANPEKKWVREYINSLEMS", "Kd": 0.27, "pKd": "9.55 -log(Kd, M)"}
{"binder": "CCL23 (ligand) RVTKDAETEFMMSKLPLENPVLLDRFHATSADCCISYTPRSIPCSLLESYFETNSECSKPGVIFLTKKGRRFCANPSDKQVQVCMRMLKLDTRIKTRKN", "Kd": 1.17, "pKd": "8.93 -log(Kd, M)"}
{"binder": "B5", "Kd": 4.76, "pKd": "8.34 -log(Kd, M)"}
{"binder": "B6", "pKd": "8.19 -log(Kd, M)"}
{"binder": "CCL17 (ligand, human, UniProt Q92583 24-94, looked up, CCL17, human CC chemokine) ARGTNVGRECCLEYFKGAIPLRKLKTWYQTSEDCSRDAIVFVTVQGRAICSDPNNKRVKNAVKYLQSLERS", "Kd": 1.01, "pKd": "8.99 -log(Kd, M)"}
{"binder": "CCL16 (ligand, human, UniProt O15467 24-120, looked up, CCL16, human CC chemokine; The E. coli preparation is described for the crystal; also called human chemokine CCL16; not shown: His6, N-terminal, cleaved; SUMO, N-terminal, cleaved) QPKVPEWVNTPSTCCLKYYEKVLPRRLVVGYRKALNCHLPAIIFVTKRNREVCTNPNDDWVQEYIKDPNLPLLPTRNLSTVKIITAKNGQPQLLNSQ", "Kd": 0.54, "pKd": "9.34 -log(Kd, M)"}
{"binder": "CCL15 (ligand) QFTNDAETELMMSKLPLENPVVLNSFHFAADCCTSYISQSIPCSLMKSYFETSSECSKPGVIFLTKKGRQVCAKPSGPGVQDCMKKLKPYSI", "Kd": 107, "pKd": "7.02 -log(Kd, M)"}
{"biological_target": "B5", "test": "cell-based or functional assay", "conditions": "not given", "remark": "another data set of the same source", "units": {"IC50 of EVA-ACA1001 for inhibition of CCL8 (100 nM)-stimulated activation of CCR5 (inhibition of forskolin-induced cAMP, CAMYEL BRET biosensor, Flp-In-CHO cells); blocks CCL8 with CCR5": "nM"}}
{"binder": "B1", "IC50 of EVA-ACA1001 for inhibition of CCL8 (100 nM)-stimulated activation of CCR5 (inhibition of forskolin-induced cAMP, CAMYEL BRET biosensor, Flp-In-CHO cells); blocks CCL8 with CCR5": 188, "pIC50 of EVA-ACA1001 for inhibition of CCL8 (100 nM)-stimulated activation of CCR5 (inhibition of forskolin-induced cAMP, CAMYEL BRET biosensor, Flp-In-CHO cells); blocks CCL8 with CCR5": "6.51 -log(IC50, M)"}
{"biological_target": "B4", "test": "cell-based or functional assay", "conditions": "not given", "units": {"IC50 of EVA-ACA1001 for inhibition of CCL4 (80 nM)-stimulated activation of CCR5 (inhibition of forskolin-induced cAMP, CAMYEL BRET biosensor, Flp-In-CHO cells); blocks CCL4 with CCR5": "nM"}}
{"binder": "B1", "IC50 of EVA-ACA1001 for inhibition of CCL4 (80 nM)-stimulated activation of CCR5 (inhibition of forskolin-induced cAMP, CAMYEL BRET biosensor, Flp-In-CHO cells); blocks CCL4 with CCR5": 84, "pIC50 of EVA-ACA1001 for inhibition of CCL4 (80 nM)-stimulated activation of CCR5 (inhibition of forskolin-induced cAMP, CAMYEL BRET biosensor, Flp-In-CHO cells); blocks CCL4 with CCR5": "7.07 -log(IC50, M)"}
{"biological_target": "B3", "test": "cell-based or functional assay", "conditions": "not given", "units": {"IC50 of EVA-ACA1001 for inhibition of CCL3 (60 nM)-stimulated activation of CCR5 (inhibition of forskolin-induced cAMP, CAMYEL BRET biosensor, Flp-In-CHO cells); blocks CCL3 with CCR5": "nM"}}
{"binder": "B1", "IC50 of EVA-ACA1001 for inhibition of CCL3 (60 nM)-stimulated activation of CCR5 (inhibition of forskolin-induced cAMP, CAMYEL BRET biosensor, Flp-In-CHO cells); blocks CCL3 with CCR5": 94, "pIC50 of EVA-ACA1001 for inhibition of CCL3 (60 nM)-stimulated activation of CCR5 (inhibition of forskolin-induced cAMP, CAMYEL BRET biosensor, Flp-In-CHO cells); blocks CCL3 with CCR5": "7.02 -log(IC50, M)"}
